Target: C-terminal His-tagged Caskin1 SAM mutant G520E (human) (UniProt Q8WXD9)
Assay: SPR

Chain of C-terminal His-tagged Caskin1 SAM mutant G520E (human) (Q8WXD9 470-605 G520E): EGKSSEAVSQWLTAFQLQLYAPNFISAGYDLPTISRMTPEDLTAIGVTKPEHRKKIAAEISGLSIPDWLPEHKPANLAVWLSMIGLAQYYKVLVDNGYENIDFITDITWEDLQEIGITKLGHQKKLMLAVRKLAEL

## Caskin1 SAM mutant G566K (from UniProt Q8WXD9 470-605) (domain or fragment)
  Kd: 22 µM
